From the supplement of paper PMC10567573

B1: ZNF449 (parent)
chain: YRHQRLHTGERPYECTVCKKRFTR
B2: WDFY2 (parent)
chain: FWNFKQMWDSKKIGLRQHHCRKCG

Variants of: B1
Assay: protein stability index of a GFP-peptide fusion (GPS, HEK-293T) (PSI 1-6); higher = more stable
Settings: c terminus: a fixed tail appended
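Note: lentivirally expressed fusions sorted by FACS into six bins by GFP to DsRed ratio, PSI derived from sequencing read proportions per bin multiplied by bin number.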

Q: With YIHQRLHTGERPYECTVCKKRFTR as the variant, how does the protein stability index read?
A: The protein stability index was 2.65.

Q: Which protein stability index does the source give for YMHQRLHTGERPYECTVCKKRFTR here?
A: The protein stability index was 2.33.

Q: For YCHQRLHTGERPYECTVCKKRFTR, which protein stability index is on record?
A: The protein stability index was 2.66.

Q: With YEHQRLHTGERPYECTVCKKRFTR as the variant, how does the protein stability index read?
A: Its protein stability index is 2.65.

Variants of: B2
Assay: as above
Settings: c terminus: a fixed tail appended

Q: Which protein stability index does the source give for MWNFKQMWDSKKIGLRQHHCRKCG here?
A: The protein stability index was 1.52.

Q: With SWNFKQMWDSKKIGLRQHHCRKCG as the variant, how does the protein stability index read?
A: The protein stability index was 2.

Q: With TWNFKQMWDSKKIGLRQHHCRKCG as the variant, how does the protein stability index read?
A: The protein stability index was 2.14.

Q: Which protein stability index does the source give for DWNFKQMWDSKKIGLRQHHCRKCG here?
A: Its protein stability index is 2.59.

Q: Which protein stability index does the source give for FWNFKQMWDSKKIGLRQHVCRKCG here?
A: Its protein stability index is 1.98.

Q: For FWNFKQMWDSKKIGLRQHWCRKCG, which protein stability index is on record?
A: Its protein stability index is 1.69.

Q: Which protein stability index does the source give for FWNFKQMWDSKKIGLRQHNCRKCG here?
A: The protein stability index was 2.68.

Q: With FWNFKQMWDSKKIGLRQHHCRKCS as the variant, how does the protein stability index read?
A: The protein stability index was 2.39.

Q: For FWNFKQMWDSKKIGLRQHHCRKCD, which protein stability index is on record?
A: The protein stability index was 2.09.

Q: For FWNFKQMWDSKKIGLRQHHCRKCT, which protein stability index is on record?
A: Its protein stability index is 2.7.

Q: With FWNFKQMWDSKKIGLRQHHCKKCG as the variant, how does the protein stability index read?
A: Its protein stability index is 2.01.

Q: With FWNFKQMWDSKKIGLRQHHCFKCG as the variant, how does the protein stability index read?
A: Its protein stability index is 1.76.

Q: With FWNFKQMWDSKKIGLRQHHCYKCG as the variant, how does the protein stability index read?
A: The protein stability index was 1.58.

Q: For FWNFKQMWDSKKIGLRQHHCRACG, which protein stability index is on record?
A: Its protein stability index is 1.09.

Q: Which protein stability index does the source give for FWNFKQMWDSKKIGLRQHHCRNCG here?
A: Its protein stability index is 1.57.

Q: For FWNFKQMWDSKKIGLRQHHCRGCG, which protein stability index is on record?
A: The protein stability index was 1.65.

Q: With FWNFKQMWDSKKIGLRQHHCRYCG as the variant, how does the protein stability index read?
A: Its protein stability index is 1.78.

Q: With FWNFKQMWDSKKIGYRQHHCRKCG as the variant, how does the protein stability index read?
A: The protein stability index was 1.93.

Q: Which protein stability index does the source give for FWNFKQMWDSKKIGIRQHHCRKCG here?
A: Its protein stability index is 1.92.

Q: With FWNFKQMWDSKKIGKRQHHCRKCG as the variant, how does the protein stability index read?
A: Its protein stability index is 2.32.

Q: Which protein stability index does the source give for FWNFKQMWDSKKIGFRQHHCRKCG here?
A: Its protein stability index is 1.81.

Q: For FWNFKQMWDSKKIGLRDHHCRKCG, which protein stability index is on record?
A: The protein stability index was 1.9.

Q: For FWNFKQMWDSKKIGLRAHHCRKCG, which protein stability index is on record?
A: The protein stability index was 2.32.

Q: For FWNFKQMWDSKKIGLRWHHCRKCG, which protein stability index is on record?
A: The protein stability index was 1.82.

Q: With FWNFKQMWDSKKIGLRFHHCRKCG as the variant, how does the protein stability index read?
A: Its protein stability index is 1.35.

Q: With FWNFKQMWESKKIGLRQHHCRKCG as the variant, how does the protein stability index read?
A: Its protein stability index is 2.3.

Q: Which protein stability index does the source give for FWNFKQMWHSKKIGLRQHHCRKCG here?
A: The protein stability index was 2.63.

Q: For FWNFKQMWVSKKIGLRQHHCRKCG, which protein stability index is on record?
A: Its protein stability index is 3.81.

Q: For FWNFKQMWDSKKIGLRQHHCRKGG, which protein stability index is on record?
A: The protein stability index was 2.14.

Q: Which protein stability index does the source give for FWNFKQMWDSKKIGLRQHHCRKLG here?
A: The protein stability index was 2.01.

Q: Which protein stability index does the source give for FWNFKQMWDSKKIGLRQHHCRKIG here?
A: Its protein stability index is 2.48.

Q: Which protein stability index does the source give for FWNFKQQWDSKKIGLRQHHCRKCG here?
A: Its protein stability index is 2.21.

Q: For FWNFKQLWDSKKIGLRQHHCRKCG, which protein stability index is on record?
A: The protein stability index was 2.

Q: For FWNFKQNWDSKKIGLRQHHCRKCG, which protein stability index is on record?
A: The protein stability index was 1.62.

Q: With FWNFKQHWDSKKIGLRQHHCRKCG as the variant, how does the protein stability index read?
A: Its protein stability index is 2.48.

Q: Which protein stability index does the source give for FWNFKQTWDSKKIGLRQHHCRKCG here?
A: Its protein stability index is 2.11.

Q: With FWNFKQMWDSKKCGLRQHHCRKCG as the variant, how does the protein stability index read?
A: The protein stability index was 2.72.

Q: For FWNFKQMWDSKKGGLRQHHCRKCG, which protein stability index is on record?
A: Its protein stability index is 1.99.

Q: With FWNFKQMWDSKKVGLRQHHCRKCG as the variant, how does the protein stability index read?
A: The protein stability index was 2.02.

Q: Which protein stability index does the source give for FWNFKQMWDSKKHGLRQHHCRKCG here?
A: Its protein stability index is 1.81.

Q: With FWNFKQMWDSKKIGLRQHHFRKCG as the variant, how does the protein stability index read?
A: The protein stability index was 2.54.

Q: For FWNFKQMWDSKKIGLRQHHSRKCG, which protein stability index is on record?
A: The protein stability index was 2.49.

Q: For FWNFKQMWDSKKIGLRQHHTRKCG, which protein stability index is on record?
A: Its protein stability index is 2.28.

Q: With FWNFCQMWDSKKIGLRQHHCRKCG as the variant, how does the protein stability index read?
A: The protein stability index was 2.66.

Q: With FWNFYQMWDSKKIGLRQHHCRKCG as the variant, how does the protein stability index read?
A: Its protein stability index is 1.24.

Q: Which protein stability index does the source give for FWNFMQMWDSKKIGLRQHHCRKCG here?
A: The protein stability index was 2.6.

Q: With FWNFTQMWDSKKIGLRQHHCRKCG as the variant, how does the protein stability index read?
A: Its protein stability index is 1.5.

Q: With FWNFGQMWDSKKIGLRQHHCRKCG as the variant, how does the protein stability index read?
A: Its protein stability index is 1.5.

Q: With FWNFQQMWDSKKIGLRQHHCRKCG as the variant, how does the protein stability index read?
A: The protein stability index was 2.4.

Q: For FVNFKQMWDSKKIGLRQHHCRKCG, which protein stability index is on record?
A: Its protein stability index is 3.04.

Q: Which protein stability index does the source give for FGNFKQMWDSKKIGLRQHHCRKCG here?
A: The protein stability index was 1.8.

Q: With FQNFKQMWDSKKIGLRQHHCRKCG as the variant, how does the protein stability index read?
A: The protein stability index was 1.19.

Q: With FPNFKQMWDSKKIGLRQHHCRKCG as the variant, how does the protein stability index read?
A: Its protein stability index is 2.58.

Q: For FWNFKQMWDSIKIGLRQHHCRKCG, which protein stability index is on record?
A: Its protein stability index is 2.5.

Q: Which protein stability index does the source give for FWNFKQMWDSLKIGLRQHHCRKCG here?
A: The protein stability index was 1.73.

Q: For FWNFKQMWDSKKIGLEQHHCRKCG, which protein stability index is on record?
A: The protein stability index was 2.92.

Q: With FWNFKQMWDSKKIGLCQHHCRKCG as the variant, how does the protein stability index read?
A: Its protein stability index is 1.59.

Q: For FWNFKQMWDSKKIGLLQHHCRKCG, which protein stability index is on record?
A: The protein stability index was 1.76.

Q: For FWNFKQMWDSKKIGLAQHHCRKCG, which protein stability index is on record?
A: The protein stability index was 1.97.

Q: Which protein stability index does the source give for FWNSKQMWDSKKIGLRQHHCRKCG here?
A: The protein stability index was 2.12.

Q: For FWNYKQMWDSKKIGLRQHHCRKCG, which protein stability index is on record?
A: Its protein stability index is 1.99.

Q: For FWNIKQMWDSKKIGLRQHHCRKCG, which protein stability index is on record?
A: The protein stability index was 1.51.

Q: For FWNMKQMWDSKKIGLRQHHCRKCG, which protein stability index is on record?
A: The protein stability index was 2.26.

Q: With FWNPKQMWDSKKIGLRQHHCRKCG as the variant, how does the protein stability index read?
A: Its protein stability index is 1.93.

Q: For FWNGKQMWDSKKIGLRQHHCRKCG, which protein stability index is on record?
A: Its protein stability index is 2.23.

Q: For FWNAKQMWDSKKIGLRQHHCRKCG, which protein stability index is on record?
A: Its protein stability index is 1.61.

Q: With FWNVKQMWDSKKIGLRQHHCRKCG as the variant, how does the protein stability index read?
A: The protein stability index was 2.33.

Q: For FWNKKQMWDSKKIGLRQHHCRKCG, which protein stability index is on record?
A: The protein stability index was 1.46.

Q: With FWNFKQMWDMKKIGLRQHHCRKCG as the variant, how does the protein stability index read?
A: The protein stability index was 1.76.

Q: For FWNFKQMWDPKKIGLRQHHCRKCG, which protein stability index is on record?
A: The protein stability index was 2.17.

Q: With FWNFKQMWDSKKIGLRQVHCRKCG as the variant, how does the protein stability index read?
A: Its protein stability index is 1.83.

Q: With FWNFKQMWDSKKIGLRQTHCRKCG as the variant, how does the protein stability index read?
A: The protein stability index was 1.56.

Q: Which protein stability index does the source give for FWNFKQMWDSKKIGLRQQHCRKCG here?
A: The protein stability index was 1.44.

Q: Which protein stability index does the source give for FWNFKQMWDSKKIGLRQFHCRKCG here?
A: The protein stability index was 1.51.

Q: For FWNFKAMWDSKKIGLRQHHCRKCG, which protein stability index is on record?
A: The protein stability index was 1.56.

Q: With FWNFKVMWDSKKIGLRQHHCRKCG as the variant, how does the protein stability index read?
A: The protein stability index was 1.51.

Q: Which protein stability index does the source give for FWNFKNMWDSKKIGLRQHHCRKCG here?
A: The protein stability index was 2.27.

Q: With FWQFKQMWDSKKIGLRQHHCRKCG as the variant, how does the protein stability index read?
A: The protein stability index was 2.1.

Q: For FWLFKQMWDSKKIGLRQHHCRKCG, which protein stability index is on record?
A: The protein stability index was 1.42.

Q: Which protein stability index does the source give for FWAFKQMWDSKKIGLRQHHCRKCG here?
A: The protein stability index was 1.22.

Q: Which protein stability index does the source give for FWIFKQMWDSKKIGLRQHHCRKCG here?
A: The protein stability index was 1.84.

Q: Which protein stability index does the source give for FWNFKQMTDSKKIGLRQHHCRKCG here?
A: Its protein stability index is 2.07.

Q: For FWNFKQMFDSKKIGLRQHHCRKCG, which protein stability index is on record?
A: The protein stability index was 2.25.

Q: With FWNFKQMRDSKKIGLRQHHCRKCG as the variant, how does the protein stability index read?
A: The protein stability index was 2.58.

Q: For FWNFKQMIDSKKIGLRQHHCRKCG, which protein stability index is on record?
A: The protein stability index was 1.8.

Q: With FWNFKQMWDSKKIHLRQHHCRKCG as the variant, how does the protein stability index read?
A: The protein stability index was 1.82.

Q: With FWNFKQMWDSKKIPLRQHHCRKCG as the variant, how does the protein stability index read?
A: The protein stability index was 1.46.

Q: Which protein stability index does the source give for FWNFKQMWDSKKIMLRQHHCRKCG here?
A: Its protein stability index is 1.89.

Q: With FWNFKQMWDSKKICLRQHHCRKCG as the variant, how does the protein stability index read?
A: Its protein stability index is 2.45.

Q: For FWNFKQMWDSKKIYLRQHHCRKCG, which protein stability index is on record?
A: The protein stability index was 2.53.
